Data on 1 protein can be found in ChEMBL document CHEMBL5226320, “A versatile toolbox for investigating biological processes based on quinone methide chemistry: From self-immolative linkers to self-immobilizing agents” (Bioorg Med Chem, 2021).

Common to all, as to conditions: Homo sapiens
Substrate in data set [1]: O=c1ccc2nc3ccc(OCc4ccc(OP(=O)(O)O)cc4)cc3oc-2c1
The data set is described as follows: (§1) Binding affinity to ALP (unknown origin).

Substrate in data set [2]: O=c1ccc2nc3ccc(OP(=O)(O)O)cc3oc-2c1
The description is as §1.

Substrate in data set [3]: O=c1ccc2nc3ccc(OCc4ccc(OP(=O)(O)O)cc4)cc3oc-2c1
Put plainly: (§2) Binding affinity to ALP (unknown origin) assessed as catalytic constant.

Substrate in data set [4]: O=c1ccc2nc3ccc(OP(=O)(O)O)cc3oc-2c1
Described as §2.

Substrate in data set [5]: O=c1ccc2nc3ccc(OCc4ccc(OP(=O)(O)O)cc4)cc3oc-2c1
The data set is described as follows: (§3) Binding affinity to ALP (unknown origin) assessed as Kcat/Km.

Substrate in data set [6]: O=c1ccc2nc3ccc(OP(=O)(O)O)cc3oc-2c1
Described as §3.

B1: Alkaline phosphatase, germ cell type (Homo sapiens), P10696 (protein)
chain: MQGPWVLLLLGLRLQLSLGIIPVEEENPDFWNRQAAEALGAAKKLQPAQTAAKNLIIFLGDGMGVSTVTAARILKGQKKDKLGPETFLAMDRFPYVALSKTYSVDKHVPDSGATATAYLCGVKGNFQTIGLSAAARFNQCNTTRGNEVISVMNRAKKAGKSVGVVTTTRVQHASPAGAYAHTVNRNWYSDADVPASARQEGCQDIATQLISNMDIDVILGGGRKYMFPMGTPDPEYPDDYSQGGTRLDGKNLVQEWLAKHQGARYVWNRTELLQASLDPSVTHLMGLFEPGDMKYEIHRDSTLDPSLMEMTEAALLLLSRNPRGFFLFVEGGRIDHGHHESRAYRALTETIMFDDAIERAGQLTSEEDTLSLVTADHSHVFSFGGYPLRGSSIFGLAPGKARDRKAYTVLLYGNGPGYVLKDGARPDVTESESGSPEYRQQSAVPLDGETHAGEDVAVFARGPQAHLVHGVQEQTFIAHVMAFAACLEPYTACDLAPRAGTTDAAHPGPSVVPALLPLLAGTLLLLGTATAP
For B1, the Km is 15.3 µM in data set [1] and 24.6 µM in data set [2]. Further, the turnover number (kcat) is 0.26 s⁻¹ in data set [3] and 0.16 s⁻¹ in data set [4]. For the same protein, the kcat/Km in data set [5] is 1.7 10^4/M/s; in data set [6], 6.58 10^3/M/s.

As a reminder, the Km is the substrate concentration at which the rate is half of its maximum. A word on the kcat: it is the number of substrate molecules converted per active site and unit of time at saturation. As a reminder, the kcat/Km is the turnover number divided by the Michaelis constant.
